Measurements from paper PMC9865957, “^68Ga-HBED-CC-WL-12 PET in Diagnosing and Differentiating Pancreatic Cancers in Murine Models” (Pharmaceuticals, 2023).

Key:
[1] = In vitro stability in saline (ITLC); type: physicochemical; details: 37 °C, read-out ITLC (silica gel paper, 50% acetonitrile), mean ± SD
[2] = in vitro; details: 10% FBS (serum)
Procedure: The radiochemical purity of [^68Ga]-WL12 was determined by thin-layer chromatography (ITLC) using glass microfiber chromatography paper impregnated with a silica gel as the stationary phase and acetonitrile (50%) as the mobile phase. For the evaluation of in vitro stability, [^68Ga]-WL12 was incubated at 37 °C with saline and 10% serum, respectively, for 60 min. Aliquots (3.7 kBq) of each radiolabeled ligand were taken and analyzed by ITLC.

[3] = system: U87MG cells; assay: Cellular uptake assay, U87MG cells; type: cell-based, human; details: 1.5 kBq tracer, 45 min incubation with constant shaking, γ-counter, mean ± SD
Procedure: (§1) Murine pancreatic cancer cell PANC02 and human glioma cancer cell U87MG were obtained from Tongpai Biotechnology Co., LTD. The cells were cultured in DMEM medium containing 10% fetal bovine serum (FBS) and 1% penicillin–streptomycin. The cells grew adherent when cultured at 37 °C, 5% CO2, and appropriate humidity.
(§2) PANC02 and U87MG cells incubated to a confluence of approximately 80% in a 10 cm Petri dish were digested, centrifugated, and separated to several EP tubes. Then, the cells were incubated with 1.5 kBq ^68Ga-WL12 in a state of constant shaking for 5, 15, 30, and 45 min. At each time point, precipitation of cells was collected after centrifugating and washing by PBS. The radioactivity for each sample was measured by a γ-counter and calculated as the percentage.

[4] = system: PANC02 cells; assay: Cellular uptake assay, PANC02 cells; type: cell-based, murine; details: 1.5 kBq tracer, 45 min incubation with constant shaking, γ-counter, mean ± SD
Procedure: as §1, §2

[5] = in vivo; details: female, C57BL/6, mouse, iv, 3.7 MBq, total radioactivity
Procedure: C57BL/6 female mice were obtained from Shanghai Lingchang Biotechnology Co., LTD, Shanghai, China. The animals were kept in the Animal Experiment Center of Shanghai Changhai Hospital of SPF level. Then, 1 × 10^6 PANC02 cells in 0.1 mL mixture of PBS and Matrigel at a 1:1 ratio was inoculated subcutaneous into the right trunk of the mice. When the tumor reached an average volume of 300–500 mm^3, in vivo experiments of tracer metabolism were performed.
All imaging acquisition was performed on a clinical PET-CT scanner (Biograph64, Siemens Healthcare, Erlangen, Germany). Before imaging, the model mice were injected with 50 μL sodium pentobarbital (3%) into the abdominal cavity for anesthesia. […] For quantification of tracer uptake, 3D regions of interest (ROI) were drawn on the muscle, liver, and tumor.

SMILES	RCP after 60 min incubation in saline [1] [%]	remaining at 1 h [2] [%]	specific binding rate in U87MG [3] [%]	specific binding rate in PANC02 [4] [%]	SUV at 20 min [5] [SUV]	SUV at 1.5 h [5] [SUV]	tissue to tissue ratio at 1.5 h ([5]; tumor-to-liver (T/L) ratio based on SUVmax)	tissue to tissue ratio at 1.5 h ([5]; tumor-to-muscle (T/M) ratio based on SUVmax)	SUV at 1 h [5] [SUV]
CCCC[C@H]1C(=O)N(C)[C@@H](CCCC)C(=O)N[C@@H](CCCNC(=O)CCc2ccc(O)c(CN(CCN(CC(=O)O)Cc3cc(CCC(=O)O)ccc3O)CC(=O)O)c2)C(=O)N[C@H](C(=O)NCC(N)=O)CSCC(=O)N[C@@H](Cc2ccc(O)cc2)C(=O)N(C)[C@@H](C)C(=O)N[C@@H](CC(N)=O)C(=O)N2CCC[C@H]2C(=O)N[C@@H](Cc2c[nH]cn2)C(=O)N[C@@H](CC(C)C)C(=O)N2C[C@H](O)C[C@H]2C(=O)N[C@@H](Cc2c[nH]c3ccccc23)C(=O)N[C@@H](CO)C(=O)N[C@@H](Cc2cn(C)c3ccccc23)C(=O)N1C [^68Ga-HBED-CC-WL12, metal not drawn]	92.5 ± 1.5	56.5 ± 2.3	37.7 ± 2.4	31.2 ± 9.4	0.37	0.38 ± 0.02	0.45 ± 0.03	> 2	–
N=C(N)NCCC[C@@H]1NC(=O)[C@H](CCCCNC(=O)CC[C@H](NC(=O)CN2CCN(CC(=O)O)CCN(CC(=O)O)CCN(CC(=O)O)CC2)C(=O)NCCCC[C@@H]2NC(=O)[C@@H](Cc3ccccc3)NC(=O)[C@H](CC(=O)O)NC(=O)CNC(=O)[C@H](CCCNC(=N)N)NC2=O)NC(=O)[C@@H](Cc2ccccc2)NC(=O)[C@H](CC(=O)O)NC(=O)CNC1=O [^68Ga-RGD, metal not drawn, reference compound]	–	–	–	–	–	–	–	–	< 0.05
